Assay results taken from publication PMC6891888.

Key:
[1] = biological target: BG505 NFL CC+ trimer (HIV-1 (strain BG505)); assay: cryo-EM structure
[2] = biological target: 16055 NFL TD 2CC+ trimer (HIV-1 (strain 16055)); assay: cryo-EM structure

Substance | stoichiometry N [1] | stoichiometry N [2]
BG505 NFL CC+ trimer (domain or fragment) | 3 | –
16055 NFL TD 2CC+ trimer (domain or fragment) | – | 3
